{
  "source": "paper PMC7020754",
  "data": [
    {"target": "T1, Rv0023 (XRE family transcription regulator) (Mycobacterium tuberculosis, UniProt P9WMI3 1-256)", "T1 sequence": "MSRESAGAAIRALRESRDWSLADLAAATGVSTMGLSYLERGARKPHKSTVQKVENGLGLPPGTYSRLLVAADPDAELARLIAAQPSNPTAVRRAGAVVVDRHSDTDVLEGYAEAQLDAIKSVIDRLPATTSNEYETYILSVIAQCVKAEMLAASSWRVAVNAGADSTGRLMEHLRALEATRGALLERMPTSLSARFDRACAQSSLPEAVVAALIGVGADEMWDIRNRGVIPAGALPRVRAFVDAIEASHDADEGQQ", "test": "EMSA; 8 pmol protein", "conditions": "protein: recombinant; tags: His (implied by Ni-NTA purification; pET23a, also printed pET21b); chain copies: 2; label: 32P", "values": [
      {"binder": "M0 (dsDNA) DNA 1: AGAGCCCGCCACAGACATATACGCTTTTGCCTATGTTTC DNA 2: GAAACATAGGCAAAAGCGTATATGTCTGTGGCGGGCTCT", "binding result": "binds"},
      {"binder": "M1 (dsDNA) DNA 1: AGAGCCCGCCACAGACAGATACGCTTTTGCCTATGTTTC DNA 2: GAAACATAGGCAAAAGCGTATCTGTCTGTGGCGGGCTCT", "binding result": "binds"},
      {"binder": "M9 (dsDNA) DNA 1: AGAGCCCGCCACAGACATATACTCTTTTGCCTATGTTTC DNA 2: GAAACATAGGCAAAAGAGTATATGTCTGTGGCGGGCTCT", "binding result": "binds"},
      {"binder": "M4 (dsDNA) DNA 1: AGAGCCCGCCACAGACATATGCGCTTTTGCCTATGTTTC DNA 2: GAAACATAGGCAAAAGCGCATATGTCTGTGGCGGGCTCT", "binding result": "binds"},
      {"binder": "M5 (dsDNA) DNA 1: AGAGCCCGCCACAGACATATACGCGTTTGCCTATGTTTC DNA 2: GAAACATAGGCAAACGCGTATATGTCTGTGGCGGGCTCT", "binding result": "binds"},
      {"binder": "M10 (dsDNA) DNA 1: AGAGCCCGCCACAGACATATATGCTTTTGCCTATGTTTC DNA 2: GAAACATAGGCAAAAGCATATATGTCTGTGGCGGGCTCT", "binding result": "binds"}
    ]},
    {"target": "T1, Rv0023 (XRE family transcription …)", "test": "EMSA; 8 pmol protein", "conditions": "protein: recombinant; tags: His (implied by Ni-NTA purification; pET23a, also printed pET21b); chain copies: 2; label: 32P; blunt", "values": [
      {"binder": "OL4 (dsDNA) DNA 1: ACGCTTTTGCCTATGTTTCGTTCAACAAGGAGGCCGGCAC DNA 2: GTGCCGGCCTCCTTGTTGAACGAAACATAGGCAAAAGCGT", "binding result": "no binding"},
      {"binder": "F4 (dsDNA) DNA 1: TGGCCGCGCCGGCCGACTCACGGCTCACCGCACGCTCCGGCCATAAGCCGGATACTACCC DNA 2: GGGTAGTATCCGGCTTATGGCCGGAGCGTGCGGTGAGCCGTGAGTCGGCCGGCGCGGCCA", "binding result": "no binding"},
      {"binder": "F2 (dsDNA) DNA 1: CACCCCTTATGTATATACGTTTTTATCGCGATTCTCTTGCAGAGCCCGCCACAGACATAT DNA 2: ATATGTCTGTGGCGGGCTCTGCAAGAGAATCGCGATAAAAACGTATATACATAAGGGGTG", "binding result": "binds"},
      {"binder": "F3 (dsDNA) DNA 1: CCATAAGCCGGATACTACCCGGATACGACTCGGCCGCGGCCACCCCTTATGTATATACGT DNA 2: ACGTATATACATAAGGGGTGGCCGCGGCCGAGTCGTATCCGGGTAGTATCCGGCTTATGG", "binding result": "no binding"},
      {"binder": "OL3 (dsDNA) DNA 1: AGAGCCCGCCACAGACATATACGCTTTTGCCTATGTTTCG DNA 2: CGAAACATAGGCAAAAGCGTATATGTCTGTGGCGGGCTCT", "binding result": "binds"},
      {"binder": "OL1 (dsDNA) DNA 1: CACCCCTTATGTATATACGTTTTTATCGCGATTCTCTTGC DNA 2: GCAAGAGAATCGCGATAAAAACGTATATACATAAGGGGTG", "binding result": "binds"},
      {"binder": "OL2 (dsDNA) DNA 1: TTTTATCGCGATTCTCTTGCAGAGCCCGCCACAGACATAT DNA 2: ATATGTCTGTGGCGGGCTCTGCAAGAGAATCGCGATAAAA", "binding result": "no binding"},
      {"binder": "F5 (dsDNA) DNA 1: TCCGCGAGGGACCAGTCACGCGACTCGCGAAGTGCGCGAATGGCCGCGCCGGCCGACTCA DNA 2: TGAGTCGGCCGGCGCGGCCATTCGCGCACTTCGCGAGTCGCGTGACTGGTCCCTCGCGGA", "binding result": "no binding"},
      {"binder": "F6 (dsDNA) DNA 1: GCTCAGGCCCATGGTGCTTACGCCAGTGGCGGCCGCCAGGTCCGCGAGGGACCAGTCACG DNA 2: CGTGACTGGTCCCTCGCGGACCTGGCGGCCGCCACTGGCGTAAGCACCATGGGCCTGAGC", "binding result": "no binding"},
      {"binder": "F1 (dsDNA) DNA 1: AGAGCCCGCCACAGACATATACGCTTTTGCCTATGTTTCGTTCAACAAGGAGGCCGGCAC DNA 2: GTGCCGGCCTCCTTGTTGAACGAAACATAGGCAAAAGCGTATATGTCTGTGGCGGGCTCT", "binding result": "binds"},
      {"binder": "OL5 (dsDNA) DNA 1: ATTCTCTTGCAGAGCCCGCCACAGACATATACGCTTTTGC DNA 2: GCAAAAGCGTATATGTCTGTGGCGGGCTCTGCAAGAGAAT", "binding result": "no binding"}
    ]}
  ]
}
